Results as given in publication PMC4486934.

Target: alpha-thrombin (biotinylated, thrombin-BFPRck) (human, UniProt P00734;P00734 328-363;364-622)
Assay: BLI; 2 mM Ca2+; TBB: 20 mM HEPES pH 7.4, 150 mM NaCl, 2 mM CaCl2; room temperature (cell binding); BLI in TBB

B1: 5-12mini (structured_RNA)
RNA: GGGAGCUCAGAAUAAACGCUCAAGUUACUGAGCUCAGCAUGAGGCCCGGAUCCGGC
modifications: 2'-fluoro pyrimidines
- Kd: ~5 nM
